How the values were obtained:
[1] = target: T1, baculovirus-derived recombinant human CD4 (rhCD4) (human, UniProt P01730 26-396, limits assumed); test: ELISA, purified Fab on coated rhCD4
T1 construct: Bought reagent, coated on ELISA plates at 50 ng/well
Protocol: (§1) The rhCD4 was dissolved in a 50 mM carbonate buffer (pH 9.6) solution to a concentration of 2 μg/mL, and the thus prepared solution was dispensed in an amount of 50 μL each into the wells on an ELISA plate, and it was then left at 4° C. overnight. Thereafter, the wells were washed with PBS-T (PBS-0.05% Tween) once. Then, 300 μL of PBS-T-SM (PBS-T-1% skim milk) was added thereto, so as to block it at room temperature for 1 hour. Subsequently, the PBS-T-SM was removed, 50 μL of an antibody sample diluted with PBS-T-SM was then added thereto, and the mixture was then left at room temperature for 1 hour. Thereafter, the sample was removed, and the residue was then washed with PBS-T three times. A PO-bound anti-human IgG-Fab antibody was diluted with PBS-T at a ratio of 1:2000, and 50 μL of the thus diluted solution was then added to the wells. The obtained mixture was left at room temperature for 1 hour. Thereafter, the secondary antibody was removed, and the residue was then washed with PBS-T three times. 50 μL of a TMB reagent was added to the resultant, so as to develop color. The color was measured at OD of 650 nm.
(§2) The percentage of peripheral B cells producing human CD4-reactive antibodies in total peripheral B cells was assumed to be approximately 0.0013%. The binding of the IgM Fab of each of the purified three clones to rhCD4 was examined by ELISA (FIG. 2).

[2] = target: T1, baculovirus-derived recombinant human …; test: ELISA, purified Fab on coated rhCD4 (50 ng/well); amount of antibody at OD650 of about 0.7 to 0.8, where 50% of the maximum binding was observed
Protocol: as §1, with “Thereafter,” for “The rhCD4 was dissolved in a 50 mM carbonate buffer (pH 9.6) solution to a concentration of 2 μg/mL, and the thus prepared solution was dispensed in an amount of 50 μL each into the wells on an ELISA plate, and it was then left at 4° C. overnight. Thereafter,”
as §2

B1: HO538-213 (Fab, V domains shown)
VH: QVQLVQSGGGVVQPGRSLRLSCAASGFTFSSYGMHWVRQAPGKGLEWVAVVCYDGRTTYYADSVKGRFTISRDISENTLYLQMNSLRAEDTAVYYCAKDLNKGYCNNGGCYGVDCWGQGTLVTVSS
VL: EIVMTQSPATLSLSPGERATLSCRASQSVNNYLAWYQQRPGQAPSLLIYDASNRATGIPARFSGSGSGTDFTLTISSLEPEDFAVYYCQQRGNWPHTFGQGTKLEIKR
notes: Human IgM Fab (mu Fd and kappa light chain) expressed in E. coli JM109 from the vector pFab1-His2 and purified on an anti-Fab column; No sentence says it outright
affinity relative to the other clones (HO702-001 and HO702-016) [1]: 0.125 fold | EC50 [2]: ~8 µg/mL

Source: patent publication US20120028347A1 (TOKAI UNIVERSITY EDUCATIONAL SYSTEM, published 2012)
